Source: publication doi:10.1101/560391 (bioRxiv, 2019)
Blank lines part the entries; values can stand above or below the molecule they belong to.

Tests used:
[1] = biological target: dCENP-A^C chimera, GFP-LacI fusion (Drosophila) (UniProt Q9V6Q2); assay: LacI/LacO tethering and co-recruitment in cells
[2] = biological target: (dCENP-A/dH4) dimer (Drosophila), Q9V6Q2; assay: SEC-MALS; conditions: remark: other sources report otherwise
SEC-MALS = biological target: the molecule itself; assay: SEC-MALS

CAL1 recruitment relative to WT dCENP-A [1]: 60%
Molecule: CAL1-V5 (from UniProt Q9VEN2 1-979) (natural protein)

stoichiometry N [2]: 1
B1: recombinant CAL1(1-160), Q9VEN2 1-160 (domain or fragment)
chain: MANAVVDEETLEAMVYERSKAWSSKMADFASLEDGMEIDVAEFDNLFHGEDEDPDLDDVAKEAVEDNVPDEAKLEMGHINATSVTELTLILCANEDNEAKAEIEEILNQTVPVVEEHKRKWREAGLDRILDTFDEKQIEHHVGRWMRRHNSVYLEASPPK

B2: His-dCENP-C(1264-1411) (domain or fragment)
chain: GPVVFSTPLRDEQEEASTKLMQWLRGVGDAPPSASMSDENASVSSANELIFCQVDGIDYAFYNTKEKAMLGYMRFKPYQKRSMKQAKVHPLKLLVQFGEFNVETLAVGEEKEVHSVLRVGDMIEIDRGTRYSIQNAIDKVSVLMCIRS
stoichiometry N (SEC-MALS): 2
